Results from paper PMC12454647.

Tests used:
[1] = target: BdhE (bifunctional dehydrogenase E) from Halomonas eurihalina (Halomonas eurihalina); assay: native gel or EMSA; blue native PAGE, 3-14% polyacrylamide gradient, 150 V for ~75 minutes; purified AdhE 5 or 10 ug, BdhE 1 or 2 ug
[2] = target: BdhE (bifunctional dehydrogenase E) from Halomonas eurihalina (Halomonas eurihalina); assay: cryo-EM structure; single particle analysis, 2.02 mg/mL AdhE or 1.35 mg/mL BdhE, no cofactors added, Talos Arctica 200 kV, CryoSPARC

stoichiometry N [1]: 4 | stoichiometry N [2]: 4
Substance: BdhE (bifunctional dehydrogenase E) from Halomonas eurihalina (enzyme)
